Experimental data reported in patent US20230131727A1 (Janssen / Centocor, published 2023).

B1: PSMB1156 conjugated to maleimide-PEG4-vcPAB-MMAF (ADC) (antibody, human IgG1, lambda, V domains shown)
VH: EVQLVESGGGVVQPGRSLRLSCAASGFTFTSYGMHWVRQAPGKGLEWVAVISYDGSNKYYADSVKGRFTISRDNSKNTLYLQMNSLRAEDTAVYYCAREHYDSSGYYHGYYGMDVWGQGTTVTVSS
VL: not shown
modifications: reduced cysteines carry maleimide-PEG4-vcPAB-MMAF or N-ethyl maleimide; sites not given
B2: PSMB1154 conjugated to maleimide-PEG4-vcPAB-MMAF (ADC) (antibody, human IgG1, lambda, V domains shown)
VH: EVQLVESGGGEVQPGRSLRLTCAVSGFTLSRYGMHWVRQAPGKGLEWAALISYDGSNRYYADSVKGRFTISRDNSKNTVFLQMNSLRAEDTAVYYCARERESSGWFEGYFDYWGQGTTVTVSS
VL: QLVLTQPPSVSVAPGQTARITCGGNNIGSKSVHWYQQKPGQAPVLVVYDNSDRPSGIPERFSGSNSGNTATLTISRVEVGDEADYYCQVWDSSSDHVVFGGGTKLTVLG
modifications: reduced cysteines carry maleimide-PEG4-vcPAB-MMAF or N-ethyl maleimide; sites not given
B3: PSMB1157 conjugated to maleimide-PEG4-vcPAB-MMAF (ADC) (antibody, human IgG1, lambda, V domains shown)
VH: EVQLVESGGGVVQPGRSLRLSCAASVRTFSGYGMHWVRQVPGKGLEWVAVISYDGSNRYYADSVKGRFTISRDNSKNTLYLQMNSLRTEDTAVYYCARDGNWGSLDLYFDLWGRGTLVTVSS
VL: QSVLTQPPSVSGAPGQRVTISCTGSSSNIGADYDVHWYQQLPGTAPKLLIYVNNNRPSGVPDRFSGSRSGTSASLAITGLQADDEADYYCQSYDNTLSGVVFGGGTKLTVLG
modifications: reduced cysteines carry maleimide-PEG4-vcPAB-MMAF or N-ethyl maleimide; sites not given
B4: PSMB1183 conjugated to maleimide-PEG4-vcPAB-MMAF (ADC) (antibody, human IgG1, lambda, V domains shown)
VH: QVQLQESGPGLVKSSETLSLTCTVSGGSISSYYWNWIRQPAGKGLEWIGRIYSSGNTDYNPSLKSRVTMSVDTSKNQFSLKLISVTAADTAVYYCARGRGANVGLFDYWGQGTLVTVSS
VL: QSALTQPPSVSGAPGQRVTISCTGSNSNIGANYDVHWYQHLPGTAPKLLIYGNINRPLGVPDRFSGSRSGTSASLAITGLQAEDEADYYCQSYDFSLSGSVFGVGTKLTVLG
modifications: reduced cysteines carry maleimide-PEG4-vcPAB-MMAF or N-ethyl maleimide; sites not given
B5: PSMB1156 conjugated to MC-GGFG-DX8951 (ADC) (antibody, human IgG1, lambda, DAR 8, V domains shown)
VH: B1 VH
VL: not shown
modifications: reduced cysteines carry MC-GGFG-DX8951; DAR 8.0
B6: PSMB1154 conjugated to MC-GGFG-DX8951 (ADC) (antibody, human IgG1, lambda, DAR 8, V domains shown)
VH: B2 VH
VL: B2 VL
modifications: reduced cysteines carry MC-GGFG-DX8951; DAR 8.0
B7: PSMB1157 conjugated to MC-GGFG-DX8951 (ADC) (antibody, human IgG1, lambda, DAR 8, V domains shown)
VH: B3 VH
VL: B3 VL
modifications: reduced cysteines carry MC-GGFG-DX8951; DAR 8.0
B8: PSMB1183 conjugated to MC-GGFG-DX8951 (ADC) (antibody, human IgG1, lambda, DAR 8, V domains shown)
VH: B4 VH
VL: B4 VL
modifications: reduced cysteines carry MC-GGFG-DX8951; DAR 8.0

Each binder was assayed against T1, human PSMA (prostate-specific membrane antigen) on cells (human, UniProt Q04609 1-750) (assay: cell-based or functional assay).
T1 sequence (Q04609 whole entry): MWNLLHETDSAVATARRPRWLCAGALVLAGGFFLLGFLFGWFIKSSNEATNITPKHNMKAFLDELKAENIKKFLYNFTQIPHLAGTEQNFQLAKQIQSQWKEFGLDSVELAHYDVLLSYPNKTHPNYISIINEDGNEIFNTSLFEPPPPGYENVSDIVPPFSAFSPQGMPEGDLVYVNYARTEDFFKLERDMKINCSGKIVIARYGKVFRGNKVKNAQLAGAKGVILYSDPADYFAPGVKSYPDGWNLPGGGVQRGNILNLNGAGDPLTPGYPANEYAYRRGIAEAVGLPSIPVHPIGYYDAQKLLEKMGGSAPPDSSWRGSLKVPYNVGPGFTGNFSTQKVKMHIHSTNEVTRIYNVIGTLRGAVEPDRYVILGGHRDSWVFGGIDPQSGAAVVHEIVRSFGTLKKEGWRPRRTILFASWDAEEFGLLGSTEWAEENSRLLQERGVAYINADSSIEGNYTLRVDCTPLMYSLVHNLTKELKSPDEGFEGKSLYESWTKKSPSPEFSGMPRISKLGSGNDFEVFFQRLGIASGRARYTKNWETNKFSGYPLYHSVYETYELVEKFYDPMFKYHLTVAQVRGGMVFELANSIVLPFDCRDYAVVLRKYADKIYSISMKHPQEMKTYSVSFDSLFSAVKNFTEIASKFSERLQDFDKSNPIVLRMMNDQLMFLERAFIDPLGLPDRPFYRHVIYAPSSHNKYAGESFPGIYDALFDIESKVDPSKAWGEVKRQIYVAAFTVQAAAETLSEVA

C4-2B IC50 [nM]	Binder
0.04	B1
0.03	B2
0.03	B3
0.03	B4

Target: T1, human PSMA (prostate-specific membrane …)
Experiment: cell-based or functional assay
Remark: another data set of the same source

MMAF IC25 (nM), 22RV1 cells [nM]	DX8951 IC50 (nM), 22RV1 cells [nM]	Binder
0.9	–	B1
–	1.4	B5
0.1	–	B2
–	0.8	B6
0.4	–	B3
–	2.2	B7
–	0.7	B8
